Changes are numbered by the printed parent chain.
T1: IL-11-mFc ligand protein (human, UniProt P20809 22-199)
T1 sequence (looked up): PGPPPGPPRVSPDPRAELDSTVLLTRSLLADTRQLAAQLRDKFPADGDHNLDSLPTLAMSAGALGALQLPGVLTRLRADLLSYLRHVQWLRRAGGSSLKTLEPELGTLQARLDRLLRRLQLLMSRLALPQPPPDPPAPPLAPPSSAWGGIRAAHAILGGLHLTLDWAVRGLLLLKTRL

T2: mouse IL-11 (mouse, UniProt P47873 22-199, limits assumed)
T2 construct: Bought reagent; also called IL-11 (Mouse)
T2 sequence (looked up): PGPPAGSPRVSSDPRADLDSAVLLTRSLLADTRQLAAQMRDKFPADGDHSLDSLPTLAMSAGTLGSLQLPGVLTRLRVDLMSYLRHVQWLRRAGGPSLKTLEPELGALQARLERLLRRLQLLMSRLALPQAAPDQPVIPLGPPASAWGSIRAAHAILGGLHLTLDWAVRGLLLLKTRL

T3: cynomolgus monkey IL-11 (cynomolgus monkey, UniProt P20808 22-199, limits assumed)
T3 construct: Bought reagent; also called IL-11 (Cynomolgus)
T3 sequence (looked up): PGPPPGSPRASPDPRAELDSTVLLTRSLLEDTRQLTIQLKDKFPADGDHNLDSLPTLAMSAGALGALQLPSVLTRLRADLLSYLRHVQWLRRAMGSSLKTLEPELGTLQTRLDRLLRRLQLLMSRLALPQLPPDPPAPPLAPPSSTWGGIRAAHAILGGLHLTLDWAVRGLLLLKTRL

T4: human IL-11 (human, UniProt P20809 22-199, limits assumed)
T4 construct: also called IL-11 antigen; IL-11 protein
T4 sequence (looked up): T1 sequence (looked up)

T5: rat IL-11 (rat, UniProt Q99MF5 22-199, limits assumed)
T5 construct: Bought reagent; also called IL-11 (Rat)
T5 sequence (looked up): T2 sequence (looked up) with S50N, L84F, G94A, V137A, I138V

T6: IL-11-Fc antigen (human, UniProt P20809 22-199, limits assumed)
T6 construct: The construct is not described; not shown: Fc part
T6 sequence (looked up): T1 sequence (looked up)

B1: murine antibody molecule MA-III (mouse IgG1 / mouse Ckappa) (antibody, V domains shown)
VH: EVKLEQSGAEVVKPGALVKMSCKASGYTFTSYWMHWVKQRPGQGLEWIGVIDPSDSYTTYNQKFKGKATLTVDTSSSTGYMQLSSLTSEDSAVYYCSQYGYDVNWYFDVWGAGTTVTVSS
VL: DIVMTQTTLSLPVSLGDQASISCRSSQSIVHSNGNTYLEWYLQKPGQSPKLLIYEVSNRFSGVPDRFSGSGSGTDFTLKISRVEAEDLGVYYCFQGSHVPWTFGGGTKLEIKA
notes: also called murine anti-IL-11 monoclonal antibody MA-III
B2: murine antibody molecule MA-I (mouse IgG1 / mouse Ckappa) (antibody)
heavy: EVKLEESGGGLVKPGGSLKLSCAASGFTFSDYYMFWVRQTPEKRLEWVATISDGGTYTYYPDSVKGRFTISRDNAKNNLYLQMTSLKSEDTAMYYCARDGGYVSSPEAMDYWGQGTSVTVSSAKTTPPSVYPLAPGSAAQTNSMVTLGCLVKGYFPEPVTVTWNSGSLSSGVHTFPAVLQSDLYTLSSSVTVPSSTWPSETVTCNVAHPASSTKVDKKIVPRDCGCKPCICTVPEVSSVFIFPPKPKDVLTITLTPKVTCVVVDISKDDPEVQFSWFVDDVEVHTAQTQPREEQFNSTFRSVSELPIMHQDWLNGKEFKCRVNSAAFPAPIEKTISKTKGRPKAPQVYTIPPPKEQMAKDKVSLTCMITDFFPEDITVEWQWNGQPAENYKNTQPIMDTDGSYFVYSKLNVQKSNWEAGNTFTCSVLHEGLHNHHTEKSLSHSPG
light: DIVLTQSTSSLSASLGDRVTISCRASQDISNYLNWYQQKPDGTVKLLIYYTSRLHSGVPSRFSGSGSGTDYSLTISNLEQEDIATYFCQQGNTLPPTFGGGTKLEIKADAAPTVSIFPPSSEQLTSGGASVVCFLNNFYPKDINVKWKIDGSERQNGVLNSWTDQDSKDSTYSMSSTLTLTKDEYERHNSYTCEATHKTSTSPIVKSFNRNEC
notes: also called murine anti-IL-11 monoclonal antibody MA-I
B3: murine antibody molecule MA-II (mouse IgG1 / mouse Ckappa) (antibody)
heavy: B2 heavy
light: B2 light with P96W
notes: also called murine anti-IL-11 monoclonal antibody MA-II
B4: murine antibody molecule MA-IV (mouse IgG1 / mouse Ckappa) (antibody, V domains shown)
VH: EVQLEESGGGLVKPGGSLKLSCVASGFTFSDYYMFWVRQTPEKRLEWVATISDGGSYSYYPDSVKGRFTISRDNAKNNLYLQMSSLRSEDTAMYYCARDGGYISSPEAMDYWGQGTSVTVSS
VL: DIVLTQSTSSLSASLGDRVTISCRASQDISNYLNWYQQKPDGTVKLLIYYTSRLHSGVPSRFSGSGSGTDYSLTISNLEQEDIATYFCQQGNTLPPTFGGGTKLEIKA
notes: also called murine anti-IL-11 monoclonal antibody MA-IV
B5: humanized antibody molecule HA-I-A (antibody, human IgG1, kappa, L234A L235A, V domains shown)
VH: QVQLVESGGGLVKPGGSLRLSCAASGFTFSDYYMFWVRQAPGKGLEWVATISDGGTYTYYPDSVKGRFTISRDNAKNSLYLQMNSLRAEDTAVYYCARDGGYVSSPEAMDYWGQGTLVTVSS
VL: DIVLTQSPSSLSASVGDRVTITCRASQDISNYLNWYQQKPGKAPKLLIYYTSRLHSGVPSRFSGSGSGTDFTFTISSLQPEDIATYYCQQGNTLPPTFGGGTKVEIKR
notes: anti-IL-11 monoclonal antibody HA-I-A
B6: humanized antibody molecule HA-I-C (antibody, human IgG1, kappa, L234A L235A, V domains shown)
VH: B5 VH
VL: B5 VL with P44V, F71Y, Y87F
B7: humanized antibody molecule HA-II-B (antibody, human IgG1, kappa, L234A L235A, V domains shown)
VH: B5 VH
VL: B5 VL with F71Y, P96W
B8: humanized antibody molecule HA-II-D (antibody, human IgG1, kappa, L234A L235A, V domains shown)
VH: B5 VH with V93M, L117S
VL: B5 VL with K42G, A43T, P44V, F71Y, Y87F, P96W
B9: humanized antibody molecule HA-II-C (antibody, human IgG1, kappa, L234A L235A, V domains shown)
VH: B5 VH with A49S
VL: B5 VL with F71Y, P96W
B10: humanized antibody molecule HA-II-A (antibody, human IgG1, kappa, L234A L235A, V domains shown)
VH: B5 VH
VL: B5 VL with P96W
B11: humanized antibody molecule HA-I-B (antibody, human IgG1, kappa, L234A L235A, V domains shown)
VH: B5 VH with A49S
VL: B5 VL with F71Y
B12: humanized antibody molecule HA-I-D (antibody, human IgG1, kappa, L234A L235A, V domains shown)
VH: B5 VH with V93M, L117S
VL: B5 VL with K42G, P44V, F71Y, Y87F
B13: chimeric antibody CA-I (antibody, human IgG1, kappa, L234A L235A)
heavy: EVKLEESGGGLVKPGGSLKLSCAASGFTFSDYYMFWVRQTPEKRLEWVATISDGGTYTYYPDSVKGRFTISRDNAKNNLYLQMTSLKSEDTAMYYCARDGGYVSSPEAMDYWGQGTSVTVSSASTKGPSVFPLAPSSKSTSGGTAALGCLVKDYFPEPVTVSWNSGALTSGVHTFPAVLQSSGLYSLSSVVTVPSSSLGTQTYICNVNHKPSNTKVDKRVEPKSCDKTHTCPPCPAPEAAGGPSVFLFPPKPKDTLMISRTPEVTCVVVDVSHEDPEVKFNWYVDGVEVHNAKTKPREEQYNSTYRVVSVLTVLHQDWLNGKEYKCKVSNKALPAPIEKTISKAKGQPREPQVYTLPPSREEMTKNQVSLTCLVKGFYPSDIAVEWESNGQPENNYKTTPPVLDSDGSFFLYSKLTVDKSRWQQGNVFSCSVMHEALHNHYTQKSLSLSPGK
light: DIVLTQSTSSLSASLGDRVTISCRASQDISNYLNWYQQKPDGTVKLLIYYTSRLHSGVPSRFSGSGSGTDYSLTISNLEQEDIATYFCQQGNTLPPTFGGGTKLEIKRTVAAPSVFIFPPSDEQLKSGTASVVCLLNNFYPREAKVQWKVDNALQSGNSQESVTEQDSKDSTYSLSSTLTLSKADYEKHKVYACEVTHQGLSSPVTKSFNRGEC
notes: Variable regions of MA-I on human IgG1 and human Ckappa constant regions
B14: chimeric antibody CA-II (antibody, human IgG1, kappa, L234A L235A)
heavy: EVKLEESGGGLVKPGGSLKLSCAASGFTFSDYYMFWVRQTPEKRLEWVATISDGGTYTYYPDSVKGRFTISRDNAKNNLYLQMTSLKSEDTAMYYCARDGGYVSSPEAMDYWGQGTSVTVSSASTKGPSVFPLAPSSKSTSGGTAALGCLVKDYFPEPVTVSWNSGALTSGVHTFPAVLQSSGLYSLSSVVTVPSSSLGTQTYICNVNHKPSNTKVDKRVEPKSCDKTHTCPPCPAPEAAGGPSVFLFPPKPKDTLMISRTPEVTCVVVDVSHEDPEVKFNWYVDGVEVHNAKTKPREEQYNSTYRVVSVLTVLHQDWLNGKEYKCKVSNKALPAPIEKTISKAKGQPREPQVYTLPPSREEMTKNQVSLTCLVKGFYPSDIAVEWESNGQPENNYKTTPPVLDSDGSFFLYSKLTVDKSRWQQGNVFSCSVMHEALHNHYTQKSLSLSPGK
light: B13 light with P96W
notes: Variable regions of MA-II on human IgG1 and human Ckappa constant regions

Target: T1, IL-11-mFc ligand protein
Experiment: cell-based or functional assay

Row | IC50 of inhibition of TIMP-1 secretion by MRC-5 cells stimulated with IL-11-mFc | Binder
1 | 1.36 µg/mL | B1
2 | 0.453 µg/mL | B2
3 | 0.475 µg/mL | B3
4 | 4.6 µg/mL | B4

Target: T2, mouse IL-11
Experiment: ELISA, mouse IL-11 coated, goat anti-human IgG Fab HRP detection

Row | EC50 | Binder
5 | 0.0139 µg/mL | B5

Target: T3, cynomolgus monkey IL-11
Experiment: ELISA, cynomolgus monkey IL-11 coated, goat anti-human IgG Fab HRP detection

Row | EC50 | Binder
6 | 0.239 µg/mL | B5

Target: T4, human IL-11
Experiment: ELISA, IL-11 coated, goat anti-human IgG Fab HRP detection

Row | EC50 | Binder
7 | 0.0252 µg/mL | B6
8 | 0.0883 µg/mL | B7
9 | 0.0585 µg/mL | B8
10 | 0.0849 µg/mL | B9
11 | 0.102 µg/mL | B10
12 | 0.0204 µg/mL | B5
13 | 0.0232 µg/mL | B11
14 | 0.0261 µg/mL | B12
15 | 0.0226 µg/mL | B13
16 | 0.0464 µg/mL | B14

Target: T5, rat IL-11
Experiment: ELISA, rat IL-11 coated, goat anti-human IgG Fab HRP detection

Row | EC50 | Binder
17 | 0.0179 µg/mL | B5

Target: T4, human IL-11
Experiment: ELISA, IL-11 coated, goat anti-mouse IgG-HRP detection

Row | EC50 | Binder
18 | 0.00379 µg/mL | B1
19 | 0.00341 µg/mL | B2
20 | 0.00372 µg/mL | B3
21 | 0.00425 µg/mL | B4

Target: T1, IL-11-mFc ligand protein
Experiment: cell-based or functional assay
Remark: another data set of the same source

Row | IC50 of inhibition of TIMP-1 secretion by MRC-5 cells stimulated with IL-11-mFc | Binder
22 | 0.343 µg/mL | B6
23 | 0.101 µg/mL | B5
24 | 0.19 µg/mL | B11
25 | 0.657 µg/mL | B12

Target: T1, IL-11-mFc ligand protein
Experiment: flow cytometry: inhibition of IL-11-mFc binding to GP130 on BaF/3-GP130 cells, goat anti-mouse IgG-FITC detection

Row | IC50 | Binder
26 | 46.2 µg/mL | B6
27 | 23.5 µg/mL | B5
28 | 39.6 µg/mL | B11
29 | 128 µg/mL | B12

Target: T1, IL-11-mFc ligand protein
Experiment: flow cytometry: inhibition of IL-11-mFc binding to IL-11RA on BaF/3-IL-11RA cells, goat anti-mouse IgG-FITC detection

Row | IC50 | Binder
30 | 4.87 µg/mL | B6
31 | 1.68 µg/mL | B5
32 | 3.58 µg/mL | B11
33 | 13.8 µg/mL | B12

Target: T1, IL-11-mFc ligand protein
Experiment: as above
Remark: another data set of the same source

Row | IC50 | Binder
34 | 19.1 µg/mL | B1
35 | 3.3 µg/mL | B2
36 | 11.1 µg/mL | B3
37 | 59.1 µg/mL | B4

Target: T6, IL-11-Fc antigen
Experiment: competition ELISA: IL-11-Fc coated, competitor IL-11RA-Fc (IgG4 type) at 0.5 ug/mL, anti-human IgG4-HRP detection

Row | IC50 | Binder
38 | 0.421 µg/mL | B1
39 | 0.331 µg/mL | B2
40 | 0.378 µg/mL | B3
41 | 0.778 µg/mL | B4

Target: T4, human IL-11
Experiment: cell-based or functional assay

Row | IC50, reporter gene (BaF/3-GP130-STAT3-Luc cells stimulated with IL-11 protein, luciferase) | Binder
42 | 0.152 µg/mL | B6
43 | 0.045 µg/mL | B5
44 | 0.103 µg/mL | B11
45 | 0.465 µg/mL | B12

Target: T4, human IL-11
Experiment: ELISA, human IL-11 coated, goat anti-human IgG Fab HRP detection

Row | EC50 | Binder
46 | 0.0106 µg/mL | B5

Source: patent publication EP4722243A1 (Beijing Dongfang Biotech Co. Ltd., dated 2026)
